In the DeepSol protein solubility set:

Assay: soluble on expression in E. coli; label from the status in PepcDB or PDB records

Row | Sequence | soluble on expression in E. coli
1 | MSLGTSYSEGVSSIHMVKGERGSNNLELTSESLSSTNDTIRRLQRDLLFLQNELRFEKFVRQQHLQNIGKLHREHILDMAVESERQKLLLTNKRYKAQIELLNSEIDKHRSESQAALNRRVKWENDFNNKIKALREEKKAWKSEESELKSSIESLISQLESIRNSQIDIAFSKNQLELKLQLYETKLKEYEQHLSCVNISKKQVSSSSDTSFGNTKMDSSMILSNSEAVSDEQERELIESEKHRMKLESENLHLQANIELLKKDLEAINVVYEAKIFDLEKRLSSEANAPELHNPVNLNYDAQLSKISEIKENYDELLTRYRELEGKFLESQAEVEELKNFQKPLVDTGSSIHSSPGLQEGHHHHHH | soluble
2 | MADENHVRLSEVQLIQSEFGHSLEECYKLAVQYYKKEHVGKQEPVGYEDRIKLLSLSKQVQHGEISDEFDNAGWLDITGNDVNKAWRELGSLSRDEAMASFVFLVDRVCPPFKGFIADKKAIKDAELKEFAPQVTEQSAQPPSLQQVDQRLFEDQRKQIQEALNAQTFHQFSAYAQEQFPGQPEQQTTLIRQLQEQHYQQYMSQVYAQQSTTPNGAEMNPEESHQHQIRRDDDSDVSDDEAGEDLPSNPAISPASLWNRQDINEFKANIKKDGHEGIIKVGHGETVTVRVPTHENGSCLFWEFATDHYDIGFGVYFEWTVADSNQVSVHVSESDDEEDYDEALEAEQAEAGGGGGGAAGQGGPGDVEAGAMQTRRVDPNKPRQDEIIPVYRRDCHEEVYAGSHRYPGRGIYLLKFDNSYSLWRSKTLYYRVYYSK | soluble
3 | MSKNTGSVAPKERVNIKYVPATSDEQAEVELPHKMLVLGDFGLDDSRALEDRQVMRIDKHTFNSVLNDANVSLDVTVPSRLGTAPDTELAVHLQFRSINDFGPDRIARQVPELNKLLALREALVALKGPLGNVPAFRKQLQHLLNNEQARKQLAQELDLVLEAPEKD | not soluble
4 | ALMGGIVDVEGAQNSAEVEELARFAVDEHNKKENALLQFSRLVKAKQQVVSGIMHHLTVEVIEGGKKKVYEAKVWVQAWLNSKKLHEFSPI | soluble
5 | RIEEVKERFVNLNRLFQELVGDFQAKSDQLVSVIQDMEKISENIMEELKKSGTNVDQIVERVKEASSQIGETLENIRSIEKLIQNIMRIARETNILALNATIEAARAGEAGKGFMIVANEVQNLSNETNEVTKQIVEKAREILESSQRSLENLEFMANLFETVGKTLQNMVRFMENIVKLLQEVRNSLDTSKESLSEKSAEIDSATKVLEETA | soluble
6 | MPGNSPHYGRWPQHDFTSLKKLRPQSVTSRIQPGSDVIVCAEMDEQWGYVGAKSRQRWLFYAYDSLRKTVVAHVFGERTMATLGRLMSLLSPFDVVIWMTDGWPLYESRLKGKLHVISKRYTQRIERHNLNLRQHLARLGRKSLSFSKSVELHDKVIGHYLNIKHYQLEHHHHHH | soluble
7 | MVDKLKQQNCTISTCESLTAGLMAATIANLPGSSQVLRGGLITYATDSKVSVAGVPGATVEEHGPVSWQCAEAMAIGAKRQFQSQWAVSLTGVAGPATQCGQPVGTVWIGVALPNGTVKSKLVADILCGPGQVVAGDRQTIRLAAVRAAAMWITDLLGLEYTNEN | not soluble
8 | MSKAKIGIVTVSDRASAGIYEDISGKAIIDTLNDYLTSEWEPIYQVIPDEQDVIETTLIKMADEQDCCLIVTTGGTGPAKRDVTPEATEAVCDRMMPGFGELMRAESLKFVPTAILSRQTAGLRGDSLIVNLPGKPKSIRECLDAVFPAIPYCIDLMEGPYLECNEAVIKPFRPKAK | soluble
9 | MSLQNLSPTQREILLALTDLYNRQKRMIKSKEVADIIGKDEGTVRNIILSLKVLGLVESKPGPNGGYMPTLKAYEIINNPTLTPILDKLNLYKGMIETDIKVENIEIIDITNPSANRVLLKVEGDLRKLKIGDAVRLGPTPYSRLVIEGLILHLDENSKEIVVDVKRMISIPKEKVKNLISKKLIALKPETSLREASMIFYKEAIRGAPVINQDEKVVGILTTADIIKAFFEGNYTAKVSDYMKTNVISINENEDLLDAIRKMIIYNVGRLLVLDSNNKAVGIVTRTDILRSIAGLEGLWTTEGHHHHHH | soluble
10 | MRKYKLGIYEKALPKNISWQDRLSIAKSCGFDFVEMSIDETDERLARLEWSKEQRLALVNSIVTTGITIPSMCLSGHRRFPFGTRDQATREKAYEIMEKAIQFAVDTGIRTIQLAGYDVYYEEQDQGTIERFQQGLAWAVELAASNQVTLAVEIMDTPFMSSISRWKKWDEMINSPWFTVYPDIGNLSAWNDNIEQELALGINKISAIHLKDTYKITKDCAGQFRDVPFGDGCVDFKGFFEILAKLNYRGAFLIEMWTEKAEEPIAEIINARRWIEQKMKEGGFEC | not soluble
11 | MATPVPLVFNAPKRGMPPTHFADLNDEARIEALKELGLPKFRLNQIARHYYGRLEADPLTMTDLPEGARQEVKDALFPTLMSPLRVVETDDDTTQKTLWKLHDGTLLESVLMRYSDRSTLCISSQAGCGMACPFCATGQGGLDRNLSIGEIVDQVRNAAATMQSEGGRLSNIVFMGMGEPLANYKRVVSAVRQITQPSPAGFGISQRSVTVSTVGLAPAIRKLADEEMSVTLAVSLHTPDDELRDTLVPVNNRWPVAEVLDAARYYADKSGRRVSIEYALIRDVNDQDWRADMLGEKLHKALGSRVHVNLIPLNPTPGSKWDAAPKARQDEFVRRVIAKGVPCTVRDTKGQEIAAACGQLAAEESA | not soluble
12 | MDELFEEHLEIAKALFAQRLPYWCDVFLRPADQAFNAYLNARGQASTYLVLEGFDPVYVPRGCDLDAVRATARARARLREAGLGEDALPVLL | not soluble
13 | MGSDKIHHHHHHMFAGAPLSMLLAMPHRPYRDEADLTLLLRWLSDHAPTTFMHPGDLVWWLYQNTQVDPRQALELLFDGEAGGNELQGFGYCDGSWSVLQGLPDLPAHVWDEMVAAAATRAGGKLTVQPHEWDTPQLAALKRAGFELTDNRMVRLVREVQPCDQEAVALPAGFHFADMSGSEVSPEDRVKVHQDVWHPSKVTLEAYGRLQAAPLYRPDLDVMVVAPSGEIAAYALGWFDPGSRTGLMEPVGTRAAFRRQGLGKGLIREVTHRFAALGAQKVTIGSYEKNVAAVALYTSAGYAARGFWVDWETETAAMKEGQDSA | not soluble
14 | MSDTDYYRELEASEQRLSDSRAANRESIRTVEDKISDEREKHVARMSEKEKKHHENMLRLTNSSAAERKSAEEAHRKSVEQLKEKHKNETEKLETQIKEIKEKGEEDVRKVELQRANLEKQRTEALDIHLETMKELNEKKFEEIRQQRKEQNILNVEEMKALSTRNAIEHETQMGLIDDTQNMILSRESRQSSLTLIGHMMKSIESGDAISSLLQEMKTYCENRDQYSPTDIKIMKNISADIGKHRAKCDFQRQQLISKINLESNADPQVVDGCFEMSMKMKCCVESSDLRSVCTTLPLLAAQQEHARISGIINKIGSLTDNLDAINVEIKTKSIQWSRRITNALTNTTGN | not soluble
15 | MGSLDHGAKEQLQSEEFGERKQFEDKELGAKKDEALHVLEGLITRSKTKLLNQAITTLLQKIEGSLKLEACPTTLVVIQAV | not soluble
16 | MFGVKDAIFKIKRSIAGTDSSDSTAYTTASESSPQLKDSHNPFRNKTTSERTIVEEGSLPPVRLNGYLPSTKNKLLTPEMCDEIRTLMPTRIQLYTEWNLLYSLEQHGSSLHSLYSNVAPDSKEFRRVGYVLVIKDRKNGIFGAYSNEAFHPNEHRQYTGNGECFLWKLDKVPDVNISEKEESEQEGKEGKEEGDKEERWRFSGYPYTGVNEFAIYCTSEFLSMGAGDGHYGLLCDDGLLHGVSNPCQTYGNEVLSKEGKKFSIVALEVWRVG | soluble
17 | MGSDKIHHHHHHMHHWESLVGEQAIPFFRWRWLAALEDSSSISAKHGWQPLHLALWRDDMPVAVAPLYLKGHSYGEFVFDQAFARLAGDLGLGYYPKLLGMSPVSPVQGYRFYVAPGENEAELTVLMLETIDAFARRNQILSCNFLYVDPHWRPLAEAAGCATWLNQQSLWSADGQSDFSAYLNSFNANQRRNIKRERKAVQQAGLTVSALTGVELDVQLLRCMHGFYEQHCARWGPWGSKYLSEAFFEALADSSLRDQVVLFSAHRVSPREPVAMSLCIQDGQMLWGRYWGSKEEIDCLHFEVCYYAPIAWALENGLENFDPGAGGQHKRRRGFVAKPHASLHRWYEPRMDALIRGWLRKVNPLMLEEIESANADLPFRVEPAPQLIVE | not soluble
